Laboratory results from IntAct's records for PubMed 28533415.

B1: Nucleus-vacuole junction protein 1 (Saccharomyces cerevisiae), P38881 (parent)
chain: MTRPPLVRGIFSLGLSVAVLKGVEKTVRKHLERQGWIEPQKVDYELIFTIDRLKNLVDNKREALTAEQPDAGELSWRKVFNFISRQSSELDTRIYVLILLLSFLLPIAWTVLDGDRETTLEDKDNDCNVDLIENERRLKHYNDGERAVLQFGKNRSEPIILSYKDMNVLEGEHEFTSKEEHSNSHLTSKSENALNQVGSEDLLGCHLEKQLEEDKNEPNGEADGEDDNNREKDCSSSSEVESQSKCRKESTAEPDSLSRDTRTTSSLKSSTSFPISFKGSIDLKSLNQPSSLLHIQVSPTKSSNLDAQVNTEQAYSQPFRY
partner: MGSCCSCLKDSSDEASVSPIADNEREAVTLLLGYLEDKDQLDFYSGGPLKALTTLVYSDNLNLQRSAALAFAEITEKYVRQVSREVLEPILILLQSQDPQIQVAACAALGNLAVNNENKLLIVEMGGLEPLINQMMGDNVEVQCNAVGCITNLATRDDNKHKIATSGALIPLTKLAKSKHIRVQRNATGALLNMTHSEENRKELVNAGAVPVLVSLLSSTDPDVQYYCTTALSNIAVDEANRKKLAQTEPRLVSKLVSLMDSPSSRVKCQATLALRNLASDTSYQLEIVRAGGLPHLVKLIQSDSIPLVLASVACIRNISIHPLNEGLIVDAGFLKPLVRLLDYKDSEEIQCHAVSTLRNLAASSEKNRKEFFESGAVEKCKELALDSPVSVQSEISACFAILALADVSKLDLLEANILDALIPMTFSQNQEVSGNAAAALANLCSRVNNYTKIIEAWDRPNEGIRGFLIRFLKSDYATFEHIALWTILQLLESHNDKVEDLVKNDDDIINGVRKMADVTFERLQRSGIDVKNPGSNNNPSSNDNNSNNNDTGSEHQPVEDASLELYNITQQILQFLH
B2: Vacuolar protein 8 (Saccharomyces cerevisiae), P39968 (parent)
chain: B1 partner
partner: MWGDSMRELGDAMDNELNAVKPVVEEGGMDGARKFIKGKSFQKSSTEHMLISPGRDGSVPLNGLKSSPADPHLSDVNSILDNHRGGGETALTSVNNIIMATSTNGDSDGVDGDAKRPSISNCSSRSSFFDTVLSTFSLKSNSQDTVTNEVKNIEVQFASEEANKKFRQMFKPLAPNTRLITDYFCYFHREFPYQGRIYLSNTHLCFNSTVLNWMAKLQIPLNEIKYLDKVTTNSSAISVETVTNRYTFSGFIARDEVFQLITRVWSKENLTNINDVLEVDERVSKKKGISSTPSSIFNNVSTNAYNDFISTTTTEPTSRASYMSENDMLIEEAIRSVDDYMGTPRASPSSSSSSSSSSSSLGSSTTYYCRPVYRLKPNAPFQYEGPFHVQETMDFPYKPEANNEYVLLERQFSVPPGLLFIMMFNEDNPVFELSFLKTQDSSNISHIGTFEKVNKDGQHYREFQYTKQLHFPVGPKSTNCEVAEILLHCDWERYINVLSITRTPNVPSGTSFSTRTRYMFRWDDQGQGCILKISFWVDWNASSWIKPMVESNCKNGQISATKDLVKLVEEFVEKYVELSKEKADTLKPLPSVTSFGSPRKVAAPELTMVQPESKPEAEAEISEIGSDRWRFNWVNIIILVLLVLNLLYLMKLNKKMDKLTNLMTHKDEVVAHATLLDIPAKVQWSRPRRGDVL

Variants of: B1
Settings: with vac8_yeast VAC8, P39968

| Variant | effect of a mutation on the interaction |
| --- | --- |
| MTRPPLVRGIFSLGLSVAVLKGVEKTVRKHLERQGWIEPQKVDYELIFTIDRLKNLVDNKREALTAEQPDAGELSWRKVFNFISRQSSELDTRIYVLILLLSFLLPIAWTVLDGDRETTLEDKDNDCNVDLIENERRLKHYNDGERAVLQFGKNRSEPIILSYKDMNVLEGEHEFTSKEEHSNSHLTSKSENALNQVGSEDLLGCHLEKQLEEDKNEPNGEADGEDDNNREKDCSSSSEVESQSKCRKESTAEPDSLSRDTRTTSSLKSSTSFPISFKGSIDLKSLNQPSSLLHIQVSSTKSSNLDAQVNTEQAYSQPFRY [P299S] | with no effect |
| MTRPPLVRGIFSLGLSVAVLKGVEKTVRKHLERQGWIEPQKVDYELIFTIDRLKNLVDNKREALTAEQPDAGELSWRKVFNFISRQSSELDTRIYVLILLLSFLLPIAWTVLDGDRETTLEDKDNDCNVDLIENERRLKHYNDGERAVLQFGKNRSEPIILSYKDMNVLEGEHEFTSKEEHSNSHLTSKSENALNQVGSEDLLGCHLEKQLEEDKNEPNGEADGEDDNNREKDCSSSSEVESQSKCRKESTAEPDSLSRDTRTTSSLKSSTSFPISFKGSIDLKSLNQPSSLLHIQVSPTKSSNLDRQVNTEQAYSQPFRY [A307R] | decreasing interaction strength |
| MTRPPLVRGIFSLGLSVAVLKGVEKTVRKHLERQGWIEPQKVDYELIFTIDRLKNLVDNKREALTAEQPDAGELSWRKVFNFISRQSSELDTRIYVLILLLSFLLPIAWTVLDGDRETTLEDKDNDCNVDLIENERRLKHYNDGERAVLQFGKNRSEPIILSYKDMNVLEGEHEFTSKEEHSNSHLTSKSENALNQVGSEDLLGCHLEKQLEEDKNEPNGEADGEDDNNREKDCSSSSEVESQSKCRKESTAEPDSLSRDTRTTSSLKSSTSFPISFKGSIDLKSLNQPSSLLHRQVSPTKSSNLDAQVNTEQAYSQPFRY [I295R] | decreasing interaction strength |
| MTRPPLVRGIFSLGLSVAVLKGVEKTVRKHLERQGWIEPQKVDYELIFTIDRLKNLVDNKREALTAEQPDAGELSWRKVFNFISRQSSELDTRIYVLILLLSFLLPIAWTVLDGDRETTLEDKDNDCNVDLIENERRLKHYNDGERAVLQFGKNRSEPIILSYKDMNVLEGEHEFTSKEEHSNSHLTSKSENALNQVGSEDLLGCHLEKQLEEDKNEPNGEADGEDDNNREKDCSSSSEVESQSKCRKESTAEPDSLSRDTRTTSSLKSSTSFPISFKGSIDLKSLNQPSSLLHIQVSPTESSNLDAQVNTEQAYSQPFRY [K301E] | decreasing interaction strength |

Continued, values first:

| effect of a mutation on the interaction | Variant |
| --- | --- |
| with no effect | MTRPPLVRGIFSLGLSVAVLKGVEKTVRKHLERQGWIEPQKVDYELIFTIDRLKNLVDNKREALTAEQPDAGELSWRKVFNFISRQSSELDTRIYVLILLLSFLLPIAWTVLDGDRETTLEDKDNDCNVDLIENERRLKHYNDGERAVLQFGKNRSEPIILSYKDMNVLEGEHEFTSKEEHSNSHLTSKSENALNQVGSEDLLGCHLEKQLEEDKNEPNGEADGEDDNNREKDCSSSSEVESQSKCRKESTAEPDSLSRDTRTTSSLKSSTSFPISFKGSIDLKSLNQPSSLLHIQVSPTKSANLDAQVNTEQAYSQPFRY [S303A] |
| disrupting interaction strength | MTRPPLVRGIFSLGLSVAVLKGVEKTVRKHLERQGWIEPQKVDYELIFTIDRLKNLVDNKREALTAEQPDAGELSWRKVFNFISRQSSELDTRIYVLILLLSFLLPIAWTVLDGDRETTLEDKDNDCNVDLIENERRLKHYNDGERAVLQFGKNRSEPIILSYKDMNVLEGEHEFTSKEEHSNSHLTSKSENALNQVGSEDLLGCHLEKQLEEDKNEPNGEADGEDDNNREKDCSSSSEVESQSKCRKESTAEPDSLSRDTRTTSSLKSSTSFPISFKGSIDLKSLNQPSSLLHRQVSPTKSSNLDRQVNTEQAYSQPERY [I295R;A307R;F319E] |

Variants of: B2
Settings: with lam6_yeast LAM6, Q08001

| effect of a mutation on the interaction | Variant |
| --- | --- |
| with no effect | MGSCCSCLKDSSDEASVSPIADNEREAVTLLLGYLEDKDQLDFYSGGPLKALTTLVYSDNLNLQRSAALAFAEITEKYVRQVSREVLEPILILLQSQDPQIQVAACAALGNLAVNNENKLLIVEMGGLEPLINQMMGDNVEVQCNAVGCITNLATRDDNKHKIATSGALIPLTKLAKSKHIRVQRNATGALLNMTHSEENRKELVNAGAVPVLVSLLSSTDPDVQYYCTTALSNIAVDEANRKKLAQTEPRLVSKLVSLMDSPSSRVKCQATLALENLASDTSYQLEIVRAGGLPHLVKLIQSDSIPLVLASVACIENISIHPLNEGLIVDAGFLKPLVRLLDYKDSEEIQCHAVSTLENLAASSEKNRKEFFESGAVEKCKELALDSPVSVQSEISACFAILALADVSKLDLLEANILDALIPMTFSQNQEVSGNAAAALANLCSRVNNYTKIIEAWDRPNEGIRGFLIRFLKSDYATFEHIALWTILQLLESHNDKVEDLVKNDDDIINGVRKMADVTFERLQRSGIDVKNPGSNNNPSSNDNNSNNNDTGSEHQPVEDASLELYNITQQILQFLH [R276E;R317E;R359E] |
